According to US9090686B2, “Antibodies for the treatment of HIV” (Pierre Fabre Medicament, priority 2009, dated 2015):
Residue numbers refer to the chain shown, from its start.

B1: 515H7: murine anti-CXCR4 monoclonal antibody; light chain variable domain SEQ ID No. 7, heavy chain variable domain SEQ ID No. 8 (antibody, listed as Mus musculus, V domains shown)
VH: EVNLVESGGGLVQPGGSLRLSCATSGFTFTDNYMSWVRQPPGKALEWLGFIRNKANGYTTDYSASVRGRFTISRDNSQSILYLQMNALRAEDSATYYCARDVGSNYFDYWGQGTTLTVSS
VL: DIVMSQSPSSLAVSAGEKVTMSCKSSQSLFNSRTRKNYLAWYQQKPGQSPKLLIYWASARDSGVPARFTGSGSETYFTLTISRVQAEDLAVYYCMQSFNLRTFGGGTKLEIK
B2: c515H7: chimeric antibody 515H7: murine variable domains fused to human Ckappa and IgG1/IgG2/IgG4 constant domains; isotype tested not stated (antibody, V domains shown)
VH: B1 VH
VL: B1 VL
B3: 301aE5: murine anti-CXCR4 monoclonal antibody; light chain variable domain SEQ ID No. 34, heavy chain variable domain SEQ ID No. 35 (antibody, listed as Mus musculus, V domains shown)
VH: QVQLKESGPGLVAPSQSLSITCTVSGFSLTDYGVYWVRQPPGKGLEWLGMIWGDGTTDYNSALKSRLSISKDNSKSQVFLKMNTLQTDDTARYYCARGRQFGFDYWGQGTTLTVSS
VL: B1 VL with S22R, Y55F, A59I, D61E, A66D, E74G, Y76D, R83S, M95K, F98Y

Key:
CXCR4 homodimer = target: T1, CXCR4 homodimer (Homo sapiens, UniProt P61073); test: BRET on HEK293 cells expressing CXCR4/Rluc+CXCR4/YFP; type: cell-based; conditions: without SDF-1
T1 construct: expressed in transfected cells; host or cells: HEK293, transient transfection
T1 sequence (P61073 whole entry): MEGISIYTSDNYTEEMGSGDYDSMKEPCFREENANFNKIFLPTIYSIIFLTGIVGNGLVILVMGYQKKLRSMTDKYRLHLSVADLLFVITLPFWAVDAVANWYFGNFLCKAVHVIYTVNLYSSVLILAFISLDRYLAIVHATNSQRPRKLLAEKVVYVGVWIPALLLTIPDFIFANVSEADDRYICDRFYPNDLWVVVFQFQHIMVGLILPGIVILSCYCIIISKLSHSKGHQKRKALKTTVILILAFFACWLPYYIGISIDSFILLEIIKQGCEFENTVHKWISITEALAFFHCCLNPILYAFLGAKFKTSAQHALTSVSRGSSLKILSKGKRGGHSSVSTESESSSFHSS
T1 sequence (P61073 whole entry): as above
Text: This functional assay allows to evaluate the conformational changes induced upon SDF-1 and/or 515H7 Mab binding to CXCR4 receptor at the level of CXCR4 homodimer.
(§1) Expression vectors for the investigated interaction partners were constructed as fusion proteins with the corresponding dye (Renilla reniformis luciferase, Rluc and Yellow fluorescent protein, YFP) by applying conventional molecular biology techniques. Two days prior performing BRET experiments, HEK293 cells were transiently transfected with expression vectors coding for the corresponding BRET partners: [CXCR4/Rluc+CXCR4/YFP] to study CXCR4 homodimerization. The day after, cells were distributed in poly-lysine pre-coated white 96 MW plates in complete culture medium [DMEM supplemented with 10% FBS]. Cells were first cultivated at 37° C. with CO2 5% in order to allow cell attachment to the plate. Cells were then starved with 200 μl DMEM/well overnight Immediately prior to the BRET experiment, DMEM was removed and cells were quickly washed with PBS. Cells were then incubated in PBS in the presence or absence of antibody, 10 min at 37° C. prior to the addition of coelenterazine H 5 μM with or without SDF-1 300 nM in a final volume of 50 μl. After incubation for further 10 minutes at 37° C., light-emission acquisition at 485 nm and 530 nm was initiated using the Mithras LB940 multilabel reader (Berthold) (1 s/wavelength/well repeated 15 times at room temperature).
Calculation of BRET ratio was performed as previously described (Angers et al., 2000): [(emission530 nm)−(emission485 nm)×Cf]/(emission485 nm), where Cf=(emission530 nm)/(emission485 nm) for cells expressing the Rluc fusion protein alone under the same experimental conditions. […] For sake of readability, results are expressed in mi11iBRET units (mBU); mBU corresponds to the BRET ratio multiplied by 1000.
This functional assay allows to evaluate the conformational changes induced upon SDF-1 and/or c515H7 Mab binding to CXCR4 receptor at the level of CXCR4 homodimer.
as §1, with “Cells were then incubated in PBS in the presence or absence of antibody, 10 min at 37° C. prior to the addition of coelenterazine H 5 μM with or without SDF-1 300 nM in a final volume of 50 μl.” left out
Calculation of BRET ratio was performed as previously described (Angers et al., 2000): [(emission530 nm)−(emission485 nm)×Cf]/(emission485 nm), where Cf=(emission530 nm)/(emission485 nm) for cells expressing the Rluc fusion protein alone under the same experimental conditions. […] For sake of readability, results are expressed in milliBRET units (mBU); mBU corresponds to the BRET ratio multiplied by 1000. […]

[1] = system: HIV-1 primary isolate KON (X4 virus); test: HIV-1 KON replication in PHA-activated human PBMC, single cycle neutralization, p24 FACS (Example 5); type: cell-based; conditions: HIV-1 KON replication in PBMC, molar value in brackets
Procedure: PBMC from normal donors seronegative for HIV-1 were isolated from buffy coats or cytapheresis by Ficoll-Hypaque gradient centrifugation. PBMC were activated in the presence of PHA in RPMI 1640 cell culture medium containing 25 mM HEPES, 5 ml penicillin (10000 U/ml)-streptomycin (10000 μg/ml) 2 mM L-glutamine, supplemented with 10% heat-inactivated FCS and were used as cellular targets in a single cycle neutralization assay. HIV-1 replication in primary human PBMC was performed by analyzing intracellular staining of viral p24 antigen by FACS analysis. Briefly, 25 μl per well of various dilutions of Mabs 515H7, 301aE5 and 12G5 (R&D Systems) or culture medium as control (RPMI 1640, 10% FCS, 0.1% IL-2), were incubated for 1 h at 37° C. with 25 μl per well of HIV-1 KON X4 primary isolate dilution, in duplicate. PHA-activated human PBMC (25 μl/well) at 20×10^6 cells/ml were added to the Mab/virus mixture in a 96-well plate (U-bottom, Costar 3599) and cultured for 24 to 36 hours at 37° C. in RPMI 1640 10% FCS and 0.1% IL-2. […] To detect HIV-infected PBMC, intracellular staining of viral p24 antigen was performed and analyzed by flow cytometry. […] The percentage of p24-positive cells in the different samples was determined by gating 20,000 events on a living cell population. The living cell subsets were analyzed for p24 expression relative to background staining of uninfected cells. […]

Molecule	modulation of CXCR4/CXCR4 spatial proximity by the Mab itself (CXCR4 homodimer)	IC90 [1] [nM]
B1	able to modulate by themselves CXCR4/CXCR4 spatial proximity	66
B2	able to modulate by itself CXCR4/CXCR4 spatial proximity	–
B3	able to modulate by themselves CXCR4/CXCR4 spatial proximity	1000
